Measured values taken from US20020164600A1 (Dana-Farber, published 2002).

T1: human PD-L2 (human, UniProt Q9BQ51 20-273)
T1 construct: Expressed on transfected COS and 300.19 cells (300-hPD-L2); also called hPD-L2
T1 sequence: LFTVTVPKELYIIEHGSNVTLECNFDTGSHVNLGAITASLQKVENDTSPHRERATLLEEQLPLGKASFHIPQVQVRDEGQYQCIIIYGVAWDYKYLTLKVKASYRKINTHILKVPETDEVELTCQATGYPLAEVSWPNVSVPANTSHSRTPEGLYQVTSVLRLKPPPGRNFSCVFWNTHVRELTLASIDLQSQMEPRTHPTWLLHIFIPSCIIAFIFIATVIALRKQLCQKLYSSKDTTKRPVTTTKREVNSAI

B1: IgG2a (control Ig) (other, mouse, UniProt P01863 98-330, looked up)
chain: EPRGPTIKPCPPCKCPAPNLLGGPSVFIFPPKIKDVLMISLSPIVTCVVVDVSEDDPDVQISWFVNNVEVHTAQTQTHREDYNSTLRVVSALPIQHQDWMSGKEFKCKVNNKDLPAPIERTISKPKGSVRAPQVYVLPPPEEEMTKKQVTLTCMVTDFMPEDIYVEWTNNGKTELNYKNTEPVLDSDGSYFMYSKLRVEKKNWVERNSYSCSVVHEGLHNHHTTKSFSRTPGK
notes: Control protein
B2: mouse PD-L2 (ligand)
chain: LFTVTAPKEVYTVDVGSSVSLECDFDRRECTELEGIRASLQKVENDTSLQSERATLLEEQLPLGKALFHIPSVQVRDSGQYRCLVICGAAWDYKYLTVKVKASYMRIDTRILEVPGTGEVQLTCQARGYPLAEVSWQNVSVPANTSHIRTPEGLYQVTSVLRLKPQPSRNFSCMFWNAHMKELTSAIIDPLSRMEPKVPRTWPLHVFIPACTIALIFLAIVIIQRKRI
notes: Expressed on transfected COS, CHO.I-A^d, CHO.I-A^d.B7-2 and 300.19 cells; also called murine PD-L2; mPD-L2

Tests used:
[1] = target: T1, human PD-L2; assay: FACS on transfected COS cells
[2] = target: B1; assay: FACS on transfected COS cells

binding result [1]	binding result [2]	Binder
no binding	–	B1
–	no binding	B2
